T1: MBP-AoXlnR (MBP-XlnR1-183) (Aspergillus oryzae (strain not given for the expression construct; RIB40 used for genomic DNA)) (UniProt Q2UD93)
T1 sequence: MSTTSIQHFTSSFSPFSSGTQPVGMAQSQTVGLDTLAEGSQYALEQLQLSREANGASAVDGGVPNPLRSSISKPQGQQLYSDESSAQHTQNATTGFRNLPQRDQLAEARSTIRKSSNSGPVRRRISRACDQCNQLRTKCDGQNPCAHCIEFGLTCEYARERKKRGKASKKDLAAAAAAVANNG

T2: MBP-AoXlnR (MBP-XlnR1-183) (Aspergillus oryzae (strain  …, UniProt Q2UD93 1-183))
T2 sequence: T1 sequence

B1: egl-617 (dsDNA)
DNA 1: GCAGCGGCGAAAGGTGCAGGATGGCTGACGCTCAGTTTAATGAGCAGTGGCCTTTTTTTTTTTTTTTTTT
DNA 2: AAAAAAAAAAAAAAAAAAGGCCACTGCTCATTAAACTGAGCGTCAGCCATCCTGCACCTTTCGCCGCTGC
B2: abf-830 (abf-837 in Table S1) (dsDNA)
DNA 1: TTAAACACATGAGACACACTCGCGGCTGAATGGTTTCGGGTTTTAGCCGGCCTTTTTTTTTTTTTTTTTT
DNA 2: AAAAAAAAAAAAAAAAAAGGCCGGCTAAAACCCGAAACCATTCAGCCGCGAGTGTGTCTCATGTGTTTAA
B3: abf-687 (abf-680 in Table S1) (dsDNA)
DNA 1: GCAGAAGCTCTTGCAGATCTGTCGGCTGAAGGTTTGTTTTAGGCCAAATGCCTTTTTTTTTTTTTTTTTT
DNA 2: AAAAAAAAAAAAAAAAAAGGCATTTGGCCTAAAACAAACCTTCAGCCGACAGATCTGCAAGAGCTTCTGC
B4: egl-242 (dsDNA)
DNA 1: GGAGACTCCTCTCATCTTGCTGGGCTGAAGACTCGGTCAATACCATGATACCTTTTTTTTTTTTTTTTTT
DNA 2: AAAAAAAAAAAAAAAAAAGGTATCATGGTATTGACCGAGTCTTCAGCCCAGCAAGATGAGAGGAGTCTCC
B5: egl-363 (dsDNA)
DNA 1: CAACCCGAGGGTCGATCGACTCCGGCATTAGCTGCCCAGCAGGTATACAGCCTTTTTTTTTTTTTTTTTT
DNA 2: AAAAAAAAAAAAAAAAAAGGCTGTATACCTGCTGGGCAGCTAATGCCGGAGTCGATCGACCCTCGGGTTG

These molecules were tested against T1, MBP-AoXlnR (MBP-XlnR1-183) (Aspergillus oryzae (strain not given for the expression construct; RIB40 used for genomic DNA)) (assay: BLI). Conditions: BLI (BLItz, streptavidin sensors), Kinetics Buffer 10x (Pall-ForteBio; composition and pH not stated), room temperature, DNA immobilized, 1:1 global fit.

Question: How did the Kd turn out when “CCAGCCAACCTTCAGCTCAGCAATGCATGCCTTTTTCCCTTTTACCCATTTACCCAGGAATAATGGCATCCTCAGGGTTTCAGCATCTGCT (double strand) [xynF1_upstream_1]” was run?
Answer: 0.311 µM

Question: How did the Kd turn out when “GGAATTCGGGGTATTAGGCTAAACGTGGCTATCATGGTGAAACAGGCTGAAGAACAGTTCCTGGCAGGTCAAATGGGAATCTAGAGC (double strand) [XRE-WT]” was run?
Answer: 0.656 µM

Question: XRE-WT was tested. Which Kd did it give?
Answer: 0.656 µM

Each molecule was assayed against T2, MBP-AoXlnR (MBP-XlnR1-183) (assay: BLI; BLI (BLItz, streptavidin sensors), Kinetics Buffer 10x (Pall-ForteBio; composition and pH not stated), room temperature, DNA immobilized, 1:1 global fit). Conditions: protein: recombinant; label: 5' biotin on bio-polyA strand (complement of strand 1, S14 extended); blunt.

Question: Which Kd does the source give for B1 here?
Answer: 0.0484 µM

Question: Which Kd does the source give for B2 here?
Answer: 0.144 µM

Question: Which Kd does the source give for B3 here?
Answer: 0.133 µM

Question: How did the Kd turn out when B4 was run?
Answer: 0.0406 µM

Question: For B5, which Kd is on record?
Answer: 0.0687 µM

Source: paper PMC6323846, “Comprehensive investigation of the gene expression system regulated by an Aspergillus oryzae transcription factor XlnR using integrated mining of gSELEX-Seq and microarray data”
